Data reported in paper PMC10786891, “Massively parallel profiling of RNA-targeting CRISPR-Cas13d”.

These binders were tested against T1, EsCas13d, nuclease-dead (Eubacterium siraeum, UniProt B0MS50, R295A;H300A;R849A;H854A) (assay: crRNA (strand 1, pre-loaded); Mg2+; 40 mM Tris-HCl pH 7.5, 150 mM NaCl, 6 mM MgCl2, 1 mM DTT, 0.1% Tween-20, 0.2 mg/ml BSA; 25 C; 10 min per concentration, then washed). Conditions: tags: His6-TwinStrep-SUMO cleaved; N-terminal SNAP kept (SNAP-Surface 488); label: 3' end held by stalled T7 RNA polymerase.
T1 sequence: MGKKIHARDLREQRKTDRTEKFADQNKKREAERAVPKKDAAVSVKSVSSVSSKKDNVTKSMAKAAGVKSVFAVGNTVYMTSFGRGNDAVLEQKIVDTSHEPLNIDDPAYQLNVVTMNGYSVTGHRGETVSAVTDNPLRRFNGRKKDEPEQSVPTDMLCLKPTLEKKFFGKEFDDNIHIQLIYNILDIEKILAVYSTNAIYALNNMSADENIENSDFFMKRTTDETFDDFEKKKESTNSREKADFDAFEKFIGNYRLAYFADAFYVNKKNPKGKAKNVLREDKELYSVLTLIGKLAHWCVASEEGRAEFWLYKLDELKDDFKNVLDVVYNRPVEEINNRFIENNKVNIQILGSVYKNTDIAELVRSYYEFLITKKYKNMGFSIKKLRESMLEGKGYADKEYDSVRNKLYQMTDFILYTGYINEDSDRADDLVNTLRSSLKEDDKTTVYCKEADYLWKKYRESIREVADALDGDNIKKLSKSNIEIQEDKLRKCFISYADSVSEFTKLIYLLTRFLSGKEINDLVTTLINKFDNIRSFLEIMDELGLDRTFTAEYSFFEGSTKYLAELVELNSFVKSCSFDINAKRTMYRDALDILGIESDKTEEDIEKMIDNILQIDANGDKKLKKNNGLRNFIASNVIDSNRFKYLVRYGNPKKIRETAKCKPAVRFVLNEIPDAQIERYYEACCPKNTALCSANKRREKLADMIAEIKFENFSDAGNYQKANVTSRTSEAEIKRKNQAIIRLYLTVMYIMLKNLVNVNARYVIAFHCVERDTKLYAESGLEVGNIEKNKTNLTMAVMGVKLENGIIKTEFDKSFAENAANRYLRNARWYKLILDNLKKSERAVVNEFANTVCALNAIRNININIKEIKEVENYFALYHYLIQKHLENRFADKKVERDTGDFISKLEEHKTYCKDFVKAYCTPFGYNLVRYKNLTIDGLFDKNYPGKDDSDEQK

Binder | Kd [nM]
target 3 insG 3' of 8,insG 3' of 2 (mixed) RNA 1: CACCCGUGCAAAAUUGCAGGGGUCUAAAACGACCUGAAUAUUUCAGAUCAAA RNA 2: GGGAAUGGAUCCACAUCUACGAAUUCGUUUUUGAUCUGAAAUAUGUCAGGUGCUGCAGAUCGGAAGAGCACACGU | 57 ± 27
target 3 U2C (mixed) RNA 1: CACCCGUGCAAAAUUGCAGGGGUCUAAAACGACCUGAAUAUUUCAGAUCAAA RNA 2: GGGAAUGGAUCCACAUCUACGAAUUCGUUUUUGAUCUGAAAUAUUCAGGCCUGCAGAUCGGAAGAGCACACGU | 88.5 ± 18
target 3 U7A,U22A (mixed) RNA 1: CACCCGUGCAAAAUUGCAGGGGUCUAAAACGACCUGAAUAUUUCAGAUCAAA RNA 2: GGGAAUGGAUCCACAUCUACGAAUUCGUUAUUGAUCUGAAAUAUACAGGUCUGCAGAUCGGAAGAGCACACGU | 42.5 ± 7.25
target 3 insU 3' of 11,insC 3' of 4 (mixed) RNA 1: CACCCGUGCAAAAUUGCAGGGGUCUAAAACGACCUGAAUAUUUCAGAUCAAA RNA 2: GGGAAUGGAUCCACAUCUACGAAUUCGUUUUUGAUCUGAAAUUAUUCAGCGUCUGCAGAUCGGAAGAGCACACGU | 90 ± 26
target 3 insU 3' of 6,insU 3' of 6 (mixed) RNA 1: CACCCGUGCAAAAUUGCAGGGGUCUAAAACGACCUGAAUAUUUCAGAUCAAA RNA 2: GGGAAUGGAUCCACAUCUACGAAUUCGUUUUUGAUCUGAAAUAUUCUUAGGUCUGCAGAUCGGAAGAGCACACGU | 17.3 ± 1.2
target 3 insC 3' of 5,insG 3' of 1 (mixed) RNA 1: CACCCGUGCAAAAUUGCAGGGGUCUAAAACGACCUGAAUAUUUCAGAUCAAA RNA 2: GGGAAUGGAUCCACAUCUACGAAUUCGUUUUUGAUCUGAAAUAUUCACGGUCGUGCAGAUCGGAAGAGCACACGU | 38.5 ± 13
target 3 insG 3' of 6,insG 3' of 5 (mixed) RNA 1: CACCCGUGCAAAAUUGCAGGGGUCUAAAACGACCUGAAUAUUUCAGAUCAAA RNA 2: GGGAAUGGAUCCACAUCUACGAAUUCGUUUUUGAUCUGAAAUAUUCGAGGGUCUGCAGAUCGGAAGAGCACACGU | 8.85 ± 0.8
target 3 G4U,C6U (mixed) RNA 1: CACCCGUGCAAAAUUGCAGGGGUCUAAAACGACCUGAAUAUUUCAGAUCAAA RNA 2: GGGAAUGGAUCCACAUCUACGAAUUCGUUUUUGAUCUGAAAUAUUUAUGUCUGCAGAUCGGAAGAGCACACGU | 7.45 ± 0.85
target 1 G15C,C22U (mixed) RNA 1: CACCCGUGCAAAAAUGCAGGGGUCUAAAACUGAGCGGAUAACCUCUCUAUGG RNA 2: GGGAAUGGAUCCACAUCUACGAAUUCGUAUCAUAGACAGGUUAUCCGCUCACCGAGAUCGGAAGAGCACACGU | ~70
target 3 G3C,U8C (mixed) RNA 1: CACCCGUGCAAAAUUGCAGGGGUCUAAAACGACCUGAAUAUUUCAGAUCAAA RNA 2: GGGAAUGGAUCCACAUCUACGAAUUCGUUUUUGAUCUGAAAUACUCAGCUCUGCAGAUCGGAAGAGCACACGU | 71 ± 6
target 3 C6G,A11G (mixed) RNA 1: CACCCGUGCAAAAUUGCAGGGGUCUAAAACGACCUGAAUAUUUCAGAUCAAA RNA 2: GGGAAUGGAUCCACAUCUACGAAUUCGUUUUUGAUCUGAAGUAUUGAGGUCUGCAGAUCGGAAGAGCACACGU | 60 ± 18
target 3 insU 3' of 5,insA 3' of 2 (mixed) RNA 1: CACCCGUGCAAAAUUGCAGGGGUCUAAAACGACCUGAAUAUUUCAGAUCAAA RNA 2: GGGAAUGGAUCCACAUCUACGAAUUCGUUUUUGAUCUGAAAUAUUCAUGGUACUGCAGAUCGGAAGAGCACACGU | 21.2 ± 3.65
target 3 insA 3' of 15,insU 3' of 1 (mixed) RNA 1: CACCCGUGCAAAAUUGCAGGGGUCUAAAACGACCUGAAUAUUUCAGAUCAAA RNA 2: GGGAAUGGAUCCACAUCUACGAAUUCGUUUUUGAUCUAGAAAUAUUCAGGUCUUGCAGAUCGGAAGAGCACACGU | 51 ± 5
target 3 U21C (mixed) RNA 1: CACCCGUGCAAAAUUGCAGGGGUCUAAAACGACCUGAAUAUUUCAGAUCAAA RNA 2: GGGAAUGGAUCCACAUCUACGAAUUCGUUUCUGAUCUGAAAUAUUCAGGUCUGCAGAUCGGAAGAGCACACGU | 71 ± 18
target 3 del8,del22 (mixed) RNA 1: CACCCGUGCAAAAUUGCAGGGGUCUAAAACGACCUGAAUAUUUCAGAUCAAA RNA 2: GGGAAUGGAUCCACAUCUACGAAUUCGUUUUGAUCUGAAAUAUCAGGUCUGCAGAUCGGAAGAGCACACGU | 74.5 ± 13
target 3 insC 3' of 11 (mixed) RNA 1: CACCCGUGCAAAAUUGCAGGGGUCUAAAACGACCUGAAUAUUUCAGAUCAAA RNA 2: GGGAAUGGAUCCACAUCUACGAAUUCGUUUUUGAUCUGAAACUAUUCAGGUCUGCAGAUCGGAAGAGCACACGU | 83.5 ± 29
target 3 insU 3' of 3,insA 3' of 3 (mixed) RNA 1: CACCCGUGCAAAAUUGCAGGGGUCUAAAACGACCUGAAUAUUUCAGAUCAAA RNA 2: GGGAAUGGAUCCACAUCUACGAAUUCGUUUUUGAUCUGAAAUAUUCAGGUAUCUGCAGAUCGGAAGAGCACACGU | 28.7 ± 3
target 3 C1G (mixed) RNA 1: CACCCGUGCAAAAUUGCAGGGGUCUAAAACGACCUGAAUAUUUCAGAUCAAA RNA 2: GGGAAUGGAUCCACAUCUACGAAUUCGUUUUUGAUCUGAAAUAUUCAGGUGUGCAGAUCGGAAGAGCACACGU | 28.8 ± 4.15
target 3 insG 3' of 10,insU 3' of 3 (mixed) RNA 1: CACCCGUGCAAAAUUGCAGGGGUCUAAAACGACCUGAAUAUUUCAGAUCAAA RNA 2: GGGAAUGGAUCCACAUCUACGAAUUCGUUUUUGAUCUGAAAUGAUUCAGGUUCUGCAGAUCGGAAGAGCACACGU | 111 ± 28.5
target 1 insC 3' of 14 (mixed) RNA 1: CACCCGUGCAAAAAUGCAGGGGUCUAAAACUGAGCGGAUAACCUCUCUAUGG RNA 2: GGGAAUGGAUCCACAUCUACGAAUUCGUACCAUAGAGACGGUUAUCCGCUCACCGAGAUCGGAAGAGCACACGU | 43 ± 6
target 3 insA 3' of 22,insC 3' of 2 (mixed) RNA 1: CACCCGUGCAAAAUUGCAGGGGUCUAAAACGACCUGAAUAUUUCAGAUCAAA RNA 2: GGGAAUGGAUCCACAUCUACGAAUUCGUUUAUUGAUCUGAAAUAUUCAGGUCCUGCAGAUCGGAAGAGCACACGU | 84.5 ± 23.5
target 3 U2A,A12G (mixed) RNA 1: CACCCGUGCAAAAUUGCAGGGGUCUAAAACGACCUGAAUAUUUCAGAUCAAA RNA 2: GGGAAUGGAUCCACAUCUACGAAUUCGUUUUUGAUCUGAGAUAUUCAGGACUGCAGAUCGGAAGAGCACACGU | 38 ± 6
target 3 MT (mixed) RNA 1: CACCCGUGCAAAAUUGCAGGGGUCUAAAACGACCUGAAUAUUUCAGAUCAAA RNA 2: GGGAAUGGAUCCACAUCUACGAAUUCGUUUUUGAUCUGAAAUAUUCAGGUCUGCAGAUCGGAAGAGCACACGU | 15.6 ± 0.185
target 3 insU 3' of 22,insA 3' of 21 (mixed) RNA 1: CACCCGUGCAAAAUUGCAGGGGUCUAAAACGACCUGAAUAUUUCAGAUCAAA RNA 2: GGGAAUGGAUCCACAUCUACGAAUUCGUUUUUAUGAUCUGAAAUAUUCAGGUCUGCAGAUCGGAAGAGCACACGU | 28 ± 4
target 3 insA 3' of 22,insG 3' of 1 (mixed) RNA 1: CACCCGUGCAAAAUUGCAGGGGUCUAAAACGACCUGAAUAUUUCAGAUCAAA RNA 2: GGGAAUGGAUCCACAUCUACGAAUUCGUUUAUUGAUCUGAAAUAUUCAGGUCGUGCAGAUCGGAAGAGCACACGU | 34.5 ± 7.5
target 3 C1U,A12G (mixed) RNA 1: CACCCGUGCAAAAUUGCAGGGGUCUAAAACGACCUGAAUAUUUCAGAUCAAA RNA 2: GGGAAUGGAUCCACAUCUACGAAUUCGUUUUUGAUCUGAGAUAUUCAGGUUUGCAGAUCGGAAGAGCACACGU | 60 ± 13.5
target 3 del5 (mixed) RNA 1: CACCCGUGCAAAAUUGCAGGGGUCUAAAACGACCUGAAUAUUUCAGAUCAAA RNA 2: GGGAAUGGAUCCACAUCUACGAAUUCGUUUUUGAUCUGAAAUAUUCGGUCUGCAGAUCGGAAGAGCACACGU | 65.5 ± 12.5
target 3 C1U (mixed) RNA 1: CACCCGUGCAAAAUUGCAGGGGUCUAAAACGACCUGAAUAUUUCAGAUCAAA RNA 2: GGGAAUGGAUCCACAUCUACGAAUUCGUUUUUGAUCUGAAAUAUUCAGGUUUGCAGAUCGGAAGAGCACACGU | 25.1 ± 3.15
